Where a SMILES comes first, the peptide text is derived from it. The star is where a group is joined. RhodamineB = CCN(CC)c1ccc2c(-c3ccccc3C(=O)*)c3ccc(=[N+](CC)CC)cc-3oc2c1
Tested on: cells exposed to conjugate in culture medium, regardless of the cell type

CCN(CC)c1ccc2c(-c3ccccc3C(=O)N[C@@H](CCC(N)=O)C(=O)N[C@@H](CCCNC(=N)N)C(=O)N[C@@H](CC(C)C)C(=O)N[C@@H](Cc3ccccc3)C(=O)N[C@@H](CCC(N)=O)C(=O)N[C@H](C(=O)N[C@@H](CCCCN)C(=O)NCC(=O)N[C@@H](CCCNC(=N)N)C(=O)N[C@@H](CCCNC(=N)N)C(=O)O)C(C)C)c3ccc(=[N+](CC)CC)cc-3oc2c1 [rhodamine-Sequence I.D. No. 2] (RhodamineB-QRLFQVKGRR-OH)
intracellular free calcium increase caused by conjugate: did not result in uptake of free fluorescein or induce a large increase in intracellular free calcium
